In PMC8169799 (iScience, 2021):

Target: the molecule itself
Experiment: cryo-EM structure

B1: copper efflux regulator (CueR), Escherichia coli (natural protein, E. coli)
chain: MNISDVAKITGLTSKAIRFYEEKGLVTPPMRSENGYRTYTQQHLNELTLLRQARQVGFNLEESGELVNLFNDPQRHSADVKRRTLEKVAEIERHIEELQSMRDQLLALANACPGDDSADCPIIENLSGCCHHRAG
stoichiometry N: 2
